Data taken from PMC9671094 (Immunity, 2022).

Target: T1, BG505 SOSIP.D664 (HIV-1 isolate BG505 (clade A), stabilised)
T1 construct: also called BG505.SOSIP.664; source: HEK 293F, co-transfected with furin, purified (HisTrap, SEC); copies: 3 + 3
Assay: SPR; IgG captured as ligand by anti-human IgG (Human Antibody Capture Kit) on a GLC chip, ProteOn XPR36; trimer as analyte; 1x HBS-EP+ pH 7.4 with 1 mg/ml BSA; 1:1 binding model; highest SOSIP concentration 5 uM or 10 uM
Settings: both partners purified

| Binder | Kd [µM] |
| --- | --- |
| PG9.iGL (antibody, V domains shown) VH: QVQLVESGGGVVQPGRSLRLSCAASGFTFSSYGMHWVRQAPGKGLEWVAVISYDGSNKYYADSVKGRFTISRDNSKNTLYLQMNSLRAEDTAVYYCAREAGGPDYRNGYNYYDFWSGYYYYYYMDVWGKGTTVTVSS VL: QSALTQPASVSGSPGQSITISCTGTSSDVGGYNYVSWYQQHPGKAPKLMIYEVSNRPSGVSNRFSGSKSGNTASLTISGLQAEDEADYYCSSYTSSSTVVFGGGTKLTVL | > 5 |
| PCT64.13C (antibody, V domains shown) VH: EVQLVESGGGLVKPGGSLRLSCAASGFTFTNAWLDWVRQAPGKGLEWVGRIKSKTDGGTTDHAAPVKGRFTISRDDSKNTVYLQMNSLKIEDTAVYYCTTGVETYDFWSGYDDHYYDYYFKDVWGKGTTVTVSS VL: EIVLTQSPGTLSLSPGERATLSCRASQSVSNNYLAWYQQKPGQAPRLLIYGASSRATGIPDRFSGSGSGTDFTLTISRLEPEDFAVYYCQQSARSFTFGPGTKVDIK | > 5 |
